Legend:
[1] = fluorogenic substrate kinetics with TIMP-1 titration; conditions: glycan lost; control: wild type
[2] = APMA or MMP-3 zymogen activation time course, Western; conditions: glycan lost; control: wild type
[3] = Western blot of culture media, 24 h; conditions: glycan lost; control: wild type
[4] = gelatin zymography of secreted protein; conditions: glycan lost; control: wild type
[5] = mCherry fluorescence in media, 32 h time course; conditions: glycan lost; control: wild type
[6] = Western blot of cell lysate; conditions: glycan lost; control: wild type
[7] = mCherry co-localisation with organelle-targeted eGFP; conditions: glycan lost; control: wild type
[8] = hMMP-9-mCherry fluorescence microscopy; conditions: control: untreated
[9] = mCherry fluorescence in media, 24 h, N38X series; conditions: glycan lost; control: wild type
[10] = fluorogenic substrate assay on cell lysate; conditions: glycan lost; control: wild type
[11] = Western blot of media, transfected HEK293; conditions: control: untreated
[12] = mCherry fluorescence in media, 24 h; conditions: glycan changed form; control: untreated

B1: human matrix metalloproteinase 9 (hMMP-9): mS38 (protein)
parent chain: MSLWQPLVLVLLVLGCCFAAPRQRQSTLVLFPGDLRTNLTDRQLAEEYLYRYGYTRVAEMRGESKSLGPALLLLQKQLSLPETGELDSATLKAMRTPRCGVPDLGRFQTFEGDLKWHHHNITYWIQNYSEDLPRAVIDDAFARAFALWSAVTPLTFTRVYSRDADIVIQFGVAEHGDGYPFDGKDGLLAHAFPPGPGIQGDAHFDDDELWSLGKGVVVPTRFGNADGAACHFPFIFEGRSYSACTTDGRSDGLPWCSTTANYDTDDRFGFCPSERLYTQDGNADGKPCQFPFIFQGQSYSACTTDGRSDGYRWCATTANYDRDKLFGFCPTRADSTVMGGNSAGELCVFPFTFLGKEYSTCTSEGRGDGRLWCATTSNFDSDKKWGFCPDQGYSLFLVAAHEFGHALGLDHSSVPEALMYPMYRFTEGPPLHKDDVNGIRHLYGPRPEPEPRPPTTTTPQPTAPPTVCPTGPPTVHPSERPTAGPTGPPSAGPTGPPTAGPSTATTVPLSPVDDACNVNIFDAIAEIGNQLYLFKDGKYWRFSEGRGSRPQGPFLIADKWPALPRKLDSVFEERLSKKLFFFSGRQVWVYTGASVLGPRRLDKLGLGADVAQVTGALRSGRGKMLLFSGRRLWRFDVKAQMVDPRSASEVDRMFPGVPLDTHDVFQYREKAYFCQDRFYWRVSSRSELNQVDQVGYVTYDILQCPED
other: inhibition by TIMP-1 [1]: no change | other: proteolytic processing [2]: no change | expression_or_secretion [3]: no change | enzymatic_activity [4]: no change | expression_or_secretion, fold_change [5]: no change | expression_or_secretion [6]: no change | localisation_or_trafficking [7]: no change

B2: human matrix metalloproteinase 9 (hMMP-9): tunicamycin (250 ng/ml) (protein)
parent chain: B1 parent chain
localisation_or_trafficking ([8]; glycan lost): changes

B3: human matrix metalloproteinase 9 (hMMP-9): N38E (protein)
parent chain: B1 parent chain
expression_or_secretion [9]: no change

B4: human matrix metalloproteinase 9 (hMMP-9): mS38/ N120S (protein)
parent chain: B1 parent chain
enzymatic_activity [10]: decreases | expression_or_secretion [3]: abolishes | expression_or_secretion, fold_change [5]: decreases | expression_or_secretion [6]: no change | localisation_or_trafficking [7]: changes

B5: human matrix metalloproteinase 9 (hMMP-9): tunicamycin (protein)
parent chain: B1 parent chain
expression_or_secretion ([11]; glycan lost): decreases

B6: human matrix metalloproteinase 9 (hMMP-9): CST (1 mM) (protein)
parent chain: B1 parent chain
expression_or_secretion [12]: decreases | localisation_or_trafficking ([8]; glycan changed form): changes

B7: human matrix metalloproteinase 9 (hMMP-9): N38G (protein)
parent chain: B1 parent chain
expression_or_secretion [9]: no change

B8: human matrix metalloproteinase 9 (hMMP-9): castanospermine (CST) (protein)
parent chain: B1 parent chain
expression_or_secretion ([11]; glycan changed form): decreases

B9: human matrix metalloproteinase 9 (hMMP-9): N120S (protein)
parent chain: B1 parent chain
enzymatic_activity [10]: decreases | expression_or_secretion [3]: decreases | expression_or_secretion, fold_change [5]: decreases | expression_or_secretion [6]: no change | localisation_or_trafficking [7]: changes

B10: human matrix metalloproteinase 9 (hMMP-9): N38P (protein)
parent chain: B1 parent chain
expression_or_secretion [9]: no change
